According to patent US20170166644A1 (SORRENTO THERAPEUTICS, published 2017):

Assays:
[1] = target: T1, VEGFR2; test: Biacore
T1 construct: also called KDR
T1 sequence (P35968 20-764): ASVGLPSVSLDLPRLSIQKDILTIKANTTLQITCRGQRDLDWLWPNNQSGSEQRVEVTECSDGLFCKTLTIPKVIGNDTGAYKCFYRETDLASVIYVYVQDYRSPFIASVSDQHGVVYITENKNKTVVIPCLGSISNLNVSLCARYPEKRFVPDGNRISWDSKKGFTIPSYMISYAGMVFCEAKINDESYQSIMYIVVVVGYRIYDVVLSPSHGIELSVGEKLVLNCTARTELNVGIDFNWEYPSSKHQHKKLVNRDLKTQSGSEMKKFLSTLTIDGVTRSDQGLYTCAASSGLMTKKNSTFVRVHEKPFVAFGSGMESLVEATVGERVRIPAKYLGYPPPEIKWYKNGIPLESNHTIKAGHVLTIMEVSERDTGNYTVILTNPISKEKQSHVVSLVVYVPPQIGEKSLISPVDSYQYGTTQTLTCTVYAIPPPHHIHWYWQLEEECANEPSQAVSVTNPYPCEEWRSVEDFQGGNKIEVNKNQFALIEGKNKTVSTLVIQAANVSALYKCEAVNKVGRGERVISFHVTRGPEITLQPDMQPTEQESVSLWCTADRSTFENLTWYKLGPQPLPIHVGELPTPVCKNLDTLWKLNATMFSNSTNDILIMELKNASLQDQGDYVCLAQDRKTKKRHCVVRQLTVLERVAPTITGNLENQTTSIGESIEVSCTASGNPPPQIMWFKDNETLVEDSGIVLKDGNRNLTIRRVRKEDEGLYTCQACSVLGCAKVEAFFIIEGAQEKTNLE

[2] = target: T2, VEGFR2 on HUVECs (human, UniProt P35968 20-1356); test: cell-based or functional assay
[3] = target: T1, VEGFR2; test: EC50 measurement, summary table; assay not stated
[4] = target: T1, VEGFR2; test: IC50 measurement, summary table; assay not stated
[5] = target: soluble VEGFR2-Fc; test: blocking of VEGF binding to soluble VEGFR2-Fc (FIG. 2)
[6] = target: T2, VEGFR2 on HUVECs; test: cell binding to HUVE cells, flow cytometry (FIG. 3 legend); FIG. 3 legend, unrounded value
Protocol: (§1) This example illustrates in vitro data for VK-B8 cellular EC₅₀ measurements. Protocol: 50,000 HUVECs were aliquoted into the wells of a 96-well, v-bottom plate in 100 ul FACS Buffer (PBS+2% FBS). A twelve point, 3× dilution curve of VK-B8 was made in FACS Buffer starting at 50 μg/ml (3.33×10⁻⁷ M). Cells were spun down, washed 1× with FACS Buffer, and then resuspended in 25 μl of antibody solution in triplicate. […] Cells were further incubated for 0.5 hr. and then washed 1× with FACS Buffer. Cells were resuspended in 25 μl FACS Buffer and the median fluorescence intensity in the FL2-H channel was determined using the Intellicyt HTFC flow cytometer.
(§2) Results: The cell binding EC₅₀ for VK-B8 on HUVECs was determined to be 1.3 nM. Data was analyzed and plotted in Graph Pad Prizm using non-linear regression fit. Data points are shown (FIG. 4) as the median fluorescence intensity (MFI) of positively labeled cells +/− Std Error.

[7] = target: T2, VEGFR2 on HUVECs; test: flow cytometry on HUVECs, MFI against antibody concentration, non-linear fit (Example 6); unit taken from the axis label 'Antibody Conc (M)', log scale
Protocol: as §1, §2

[8] = target: soluble VEGFR2-Fc; test: blocking of VEGF binding to soluble VEGFR2-Fc, VK-B8 titrated, readout OD 450; plate format not described; unit taken from the axis label 'VK-B8 [log M]'

T2 sequence (P35968 20-1356): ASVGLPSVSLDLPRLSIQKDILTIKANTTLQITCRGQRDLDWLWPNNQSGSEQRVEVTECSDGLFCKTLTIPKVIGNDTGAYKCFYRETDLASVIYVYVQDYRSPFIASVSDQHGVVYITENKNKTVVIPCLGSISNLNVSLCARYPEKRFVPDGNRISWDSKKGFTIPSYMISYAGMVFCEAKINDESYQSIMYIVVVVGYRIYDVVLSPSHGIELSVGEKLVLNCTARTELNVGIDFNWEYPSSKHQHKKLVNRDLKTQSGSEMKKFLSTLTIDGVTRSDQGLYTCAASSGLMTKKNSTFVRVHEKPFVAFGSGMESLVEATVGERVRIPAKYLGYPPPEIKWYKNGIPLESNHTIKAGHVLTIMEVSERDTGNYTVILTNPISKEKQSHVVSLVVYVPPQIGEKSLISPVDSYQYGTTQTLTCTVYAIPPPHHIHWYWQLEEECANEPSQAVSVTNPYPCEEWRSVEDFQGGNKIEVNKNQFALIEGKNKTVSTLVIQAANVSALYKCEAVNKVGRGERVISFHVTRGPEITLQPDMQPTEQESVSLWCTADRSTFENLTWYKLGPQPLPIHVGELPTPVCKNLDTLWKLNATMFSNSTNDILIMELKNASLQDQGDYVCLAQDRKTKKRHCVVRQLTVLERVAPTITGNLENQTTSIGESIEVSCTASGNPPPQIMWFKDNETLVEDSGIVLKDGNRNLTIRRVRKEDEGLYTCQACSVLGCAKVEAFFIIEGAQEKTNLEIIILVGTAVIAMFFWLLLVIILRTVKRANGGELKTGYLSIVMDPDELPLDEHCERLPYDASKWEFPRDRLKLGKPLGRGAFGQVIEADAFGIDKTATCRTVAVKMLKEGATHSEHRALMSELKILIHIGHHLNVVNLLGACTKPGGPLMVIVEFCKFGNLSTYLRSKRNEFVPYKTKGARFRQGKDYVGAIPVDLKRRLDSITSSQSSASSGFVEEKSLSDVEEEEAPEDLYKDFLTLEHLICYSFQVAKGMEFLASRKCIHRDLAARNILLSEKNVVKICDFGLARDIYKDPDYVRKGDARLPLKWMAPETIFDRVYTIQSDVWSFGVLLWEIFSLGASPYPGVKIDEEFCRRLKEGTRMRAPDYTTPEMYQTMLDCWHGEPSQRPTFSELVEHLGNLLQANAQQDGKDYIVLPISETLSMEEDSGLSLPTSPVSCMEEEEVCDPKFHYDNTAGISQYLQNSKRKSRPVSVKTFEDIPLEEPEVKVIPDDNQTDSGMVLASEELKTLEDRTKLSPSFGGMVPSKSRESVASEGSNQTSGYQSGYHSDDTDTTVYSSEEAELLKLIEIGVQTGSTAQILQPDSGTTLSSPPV
soluble VEGFR2-Fc, sequence (P35968 20-764): as the sequence (P35968 20-764) above

B1: VK-B8 (antibody, V domains shown)
VH: QVQLVQSGAEVKKPGSSVKVSCKAYGGTFGSYGVSWVRRAPGQGLEWMGRLIPIFGTRDYAQKFQGRVTLTADESTNTAYMELSSLRSEDTAVYYCARDGDYYGSGSYYGMDVWGQGTLVTVSS
VL: ETTLTQSPATLSVSPGERATVSCRASQSLGSNLGWFQQKPGQAPRLLIYGASTRATGIPARFSGSGSGTEFTLTISSLQSEDFAVYFCQQYNDWPITFGQGTRLEIK
notes: The printed VH starts with MA; also called STI-A0168; anti-VEGFR2 antibody VK-B8
A Kd [1] of 0.121 nM, a koff [1] of 8.73e-05 s⁻¹ and a kon [1] of 724000 M⁻¹ s⁻¹ were found for B1 in this work. For the same binder, the “IC50 for VK-B8 inhibition of VEGF-induced p44/p42 MAPK (Erk1/2) phosphorylation in HUVECs, phospho-ELISA” value [2] was 0.08 nM, the “IC50 value for the inhibition of VEGF-induced HUVEC cell migration by VK-B8 (FIG. 14 legend)” value [2] was 0.53 nM and the “IC50 value for the inhibition of VEGF-induced HUVEC cell proliferation by VK-B8 (FIG. 13 legend)” value [2] was 14.9 nM. The “IC50 value for the inhibition of VEGF-induced HUVEC migration by VK-B8 (modified Boyden chamber)” value [2] was 0.5 nM, the “IC50 value for the inhibition of VEGF-induced HUVEC proliferation by VK-B8” value [2] was 14 nM and the EC50 [3] was 0.25 nM. It also gave an IC50 [4] of 2.04 nM, an IC50 [5] of about 0.77 nM and an EC50 [6] of about 1.3 nM. For the same binder, the EC50 [7] was 1.3 nM and the IC50 [8] was 0.771 nM.

B2: VB-A3 (antibody, V domains shown)
VH: QVQLVQSGAEVKKPGASVKVSCKASGHTFNYYYMHWVRQAPGQGLEWMGQTNLNSGGTNYAPKFQGRVTMTRDTSISTAYMELSSLRSDDTAVYYCANLNSGWFHFENWGQGTLVTVSS
VL: SYELTQPPSVSVAPGKTASITCGGNNIGSKSVHWYQQKPGQAPVLVIYYDRDRPSGIPERFSGSNSGNTATLTISRVEAGDEADYYCQVWDSSSYHPVFGGGTKLTVL
A Kd [1] of 3.09 nM, a koff [1] of 0.012 s⁻¹ and a kon [1] of 3.88e+06 M⁻¹ s⁻¹ were found for B2 in this work.

B3: VB-A9 (antibody, V domains shown)
VH: EVQLVESGGGLVKPGGSLRLSCAASGFTFSSYSMNWVRQAPGKGLEWVSSISSGSSYIYYADSLKGRFTISRDNAKNSLYLQMNSLRAEDTAVYYCARDFGNWGQGTLVTVSS
VL: QSALTQPRSVSASPGQSVTISCTGTSSDVGGYDYVSWYQQHPGKAPKLMIYEVSNRPSGVSNRFSGSKSGNTASLSISGLQAEDEADYYCSSYTSTSSPVVFGGGTKLTVL
A Kd [1] of 3.02 nM, a koff [1] of 0.000496 s⁻¹ and a kon [1] of 164000 M⁻¹ s⁻¹ were found for B3 in this work. The EC50 [3] was 0.25 nM and the IC50 [4] was 2.05 nM.

B4: VB-E1 (antibody, V domains shown)
VH: QVQLVESGAEVKKPGASVKVSCKASGYTFTNYYIHWVRQAPGQGLEWMGIINPSSGSTNYAQKFQGRVTMTRDTSTSTVYMELSSLRSEDTAVYYCARQRWDLLDDAFDIWGQGTMVTVSS
VL: DIVMTQSPDSLAVSLGERATINCKTSQSVLYNANNKNYLNWYQQKPGQPPKLLIYWASARESGVPDRFSGSGSGTDFTLTIRSLQPDDFATYYCQQAISFPLTFGGGTKVEIK
An EC50 [3] of 0.5 nM was found for B4 in this work.

B5: VR-B2 (antibody, V domains shown)
VH: EVQLLESGGGLVQPGGSLRLSCAASGFTFSSYAMHWVRQAPGKGLEWVAVISYDGSNKYYADSVKGRFTISRDNSKNTLYLQMNSLRAEDTAVYYCARDLGAASYWYFDLWGRGTLVTVSS
VL: DIQLTQSPPSVSASVGDRVTITCRASQDISTWLAWYQQKPGSAPKVLIYAASTFQSGVPSRFRGSGSGTYFTLTISGLQPEDFATYYCQQGNSFPPTFGQGTKLEIK
An EC50 [3] of 0.747 nM was found for B5 in this work.

B6: RV-H5 (antibody, V domains shown)
VH: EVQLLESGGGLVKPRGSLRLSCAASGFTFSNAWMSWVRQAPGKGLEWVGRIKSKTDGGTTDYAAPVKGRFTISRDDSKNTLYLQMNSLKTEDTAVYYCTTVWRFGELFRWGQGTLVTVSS
VL: QAGLTQPPSVSVSPGQTASITCSGDKLGDKYISWYQQKPGQSPVMVIFQDTKRPSGIPERFSGSNSGNTATLTISGTQAMDEADYYCQAWDTSTVFGGGTKLTVL
A Kd [1] of 0.815 nM, a koff [1] of 0.00225 s⁻¹ and a kon [1] of 2.76e+06 M⁻¹ s⁻¹ were found for B6 in this work. The EC50 [3] was 0.323 nM and the IC50 [4] was 5.79 nM.

B7: VR-B4 (antibody, V domains shown)
VH: QVQLVQSGAEVKKPGSSVKVSCKAYGGTFGSYGVSWVRRAPGQGLEWMGRLIPIFGTRDYAQKFQGRVTLTADESTNTAYMELSSLRSEDTAVYYCARDGDYYGSGSYYGMDVWGQGTTVTVSS
VL: SYELTQPASVSGSPGQSITISCTGSSSDVGGYNFVSWYRQHAGKAPKLMIYDVTNRPSGVSTRFSGSKSGTTASLTISGLQPDDEAHYYCSSYTTTSTWVFGGGTKLTVL
An EC50 [3] of 24.3 nM was found for B7 in this work.

B8: VR-E3 (antibody, V domains shown)
VH: EVQLVESGGGLVKPGGSLRLSCAASGFTFSSYSMNWVRQAPGKGLEWVSSISSASSYIYYADSVKGRFTISRDNAKKSLYLQLNSLTVEDTAVYYCAREYWGSPDYWGRGTLVTVSS
VL: QPVLTQPPSASGSPGQSVTISCTGTSSDVGGYNYVSWYQQHPGKAPKLMIYDVNNRPSGVPDRFSGSKSGNTASLTISGLQAEDEADYYCSSYTSSSTRVFGGGTKLTVL
An EC50 [3] of 1.29 nM and an IC50 [4] of 9.32 nM were found for B8 in this work.
